Results taken from US20070032637A1.

Target: EGFR on A431 cells (human squamous cell carcinoma cells) (human) (UniProt P00533)
Assay: inhibition of the binding of Eu-EGF (10 nM) to A431 cells, time-resolved fluorescence; blocked ligand: Eu-EGF

In the case of “anti-EGFR monoclonal antibody Ab-3 (Oncogene)”, the IC50 (read off the curve) is reported as 0.6 µg/mL.
